Tests used:
[1] = target: T1, recombinant human HER2 (human, UniProt P04626 23-652); experiment: SPR by the protocol of Example 12, sample after SEC, against v10013
T1 construct: extracellular domain
Method: (§1) Between 2000 and 4000 RU of anti-human Fc injected at concentration between 5 and 10 μg/ml was immobilized on a CM5 chip using standard amine coupling. […] HER2 dilutions were analyzed in duplicate. Sensograms were fit globally to a 1:1 Langmuir binding model. All experiments were conducted at 25° C.
(§2) The SPR was measured before and after SEC purification.

[2] = target: T1, recombinant human HER2; experiment: SPR by the protocol of Example 12, sample before SEC, against v10013
Method: as §1, §2

B1: Variant 10014 (antibody, human IgG1, kappa)
heavy: EVQLVESGGGLVQPGGSLRLSCAASGFTFADYTMDWVRQAPGKGLEWVADVNPNSGGSIYNQRFKGRFTLSVDRSKNTLYLQMNSLRAEDTAVYYCARNLGPSFYFDYWGQGTLVTVSSASTKGPSVFPLAPSSKSTSGGTAALGCLVKDYFPEPVTVSWNSGALTSGVHTFPAVLQSSGLYSLSSVVTVPSSSLGTQTYICNVNHKPSNTKVDKKVEPKSCDKTHTCPPCPAPELLGGPSVFLFPPKPKDTLMISRTPEVTCVVVDVSHEDPEVKFNWYVDGVEVHNAKTKPREEQYNSTYRVVSVLTVLHQDWLNGKEYKCKVSNKALPAPIEKTISKAKGQPREPQVYVYPPSRDELTKNQVSLTCLVKGFYPSDIAVEWESNGQPENNYKTTPPVLDSDGSFALVSKLTVDKSRWQQGNVFSCSVMHEALHNHYTQKSLSLSPG
light: not shown
Fc: not shown
notes: also called v10014
For B1, the “Fold wrt WT (KD(WT)/KD(mut))” value [1] was 7 fold and the “Fold wrt WT (KD(WT)/KD(mut))” value [2] was 8.1 fold.
